# Values quoted from earlier work as cited in PMC7114193.
# Target: ACE2 (Homo sapiens) (UniProt Q9BYF1)
# Sequence (Q9BYF1 18-740): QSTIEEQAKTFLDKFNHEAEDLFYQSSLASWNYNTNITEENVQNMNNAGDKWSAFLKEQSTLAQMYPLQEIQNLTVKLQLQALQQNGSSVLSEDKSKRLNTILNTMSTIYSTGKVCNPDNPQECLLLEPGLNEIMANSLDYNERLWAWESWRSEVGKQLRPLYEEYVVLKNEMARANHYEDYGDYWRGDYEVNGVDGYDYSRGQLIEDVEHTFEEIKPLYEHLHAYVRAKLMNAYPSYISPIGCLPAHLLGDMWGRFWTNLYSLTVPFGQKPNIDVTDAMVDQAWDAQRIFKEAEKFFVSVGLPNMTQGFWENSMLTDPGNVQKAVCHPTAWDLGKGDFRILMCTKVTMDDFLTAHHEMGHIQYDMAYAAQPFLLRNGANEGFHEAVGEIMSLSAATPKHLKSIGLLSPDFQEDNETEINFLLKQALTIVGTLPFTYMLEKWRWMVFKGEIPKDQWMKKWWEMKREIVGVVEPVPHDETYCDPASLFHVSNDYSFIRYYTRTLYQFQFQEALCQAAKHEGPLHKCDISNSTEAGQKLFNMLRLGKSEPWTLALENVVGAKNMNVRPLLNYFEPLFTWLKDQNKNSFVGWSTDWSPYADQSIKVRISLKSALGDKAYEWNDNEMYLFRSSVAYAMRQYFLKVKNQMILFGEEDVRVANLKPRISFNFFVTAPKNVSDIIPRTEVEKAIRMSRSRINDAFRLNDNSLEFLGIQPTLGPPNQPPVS
substance,measurement,value
RBD-Fc 318-510 (from UniProt P59594),Kd,0.01 µM
